± gives the standard deviation of the averaged measurements.
Assay: total protein half-life in vivo (active degradation + dilution); higher = more stable protein
[1] = E. coli NCM3722 delta-clpP delta-lon delta-hslV, growth: N-lim chemostat, doubling time 6 h
[2] = E. coli NCM3722 delta-clpP, growth: N-lim chemostat, doubling time 6 h
[3] = E. coli NCM3722 delta-hslV, growth: N-lim chemostat, doubling time 6 h
[4] = E. coli NCM3722 delta-lon, growth: N-lim chemostat, doubling time 6 h
[5] = E. coli NCM3722 delta-smpB, growth: N-lim chemostat, doubling time 6 h
[6] = wild type E. coli NCM3722, growth: C-lim chemostat, doubling time 3 h
[7] = wild type E. coli NCM3722, growth: C-lim chemostat, doubling time 6 h
[8] = wild type E. coli NCM3722, growth: C-lim chemostat, doubling time 12 h
[9] = wild type E. coli NCM3722, growth: N-lim chemostat, doubling time 6 h
[10] = wild type E. coli NCM3722, growth: N-lim chemostat, doubling time 12 h
[11] = wild type E. coli NCM3722, growth: P-lim chemostat, doubling time 6 h
[12] = wild type E. coli NCM3722, growth: P-lim chemostat, doubling time 12 h

Row | Sequence | total protein half-life in vivo [1] | total protein half-life in vivo [2] | total protein half-life in vivo [3] | total protein half-life in vivo [4] | total protein half-life in vivo [5] | total protein half-life in vivo [6] | total protein half-life in vivo [7] | total protein half-life in vivo [8] | total protein half-life in vivo [9] | total protein half-life in vivo [10] | total protein half-life in vivo [11] | total protein half-life in vivo [12]
1 | MRFSRFIIGLTSCIAFSVQAANVDEYITQLPAGANLALMVQKVGASAPAIDYHSQQMALPASTQKVITALAALIQLGPDFRFTTTLETKGNVENGVLKGDLVARFGADPTLKRQDIRNMVATLKKSGVNQIDGNVLIDTSIFASHDKAPGWPWNDMTQCFSAPPAAAIVDRNCFSVSLYSAPKPGDMAFIRVASYYPVTMFSQVRTLPRGSAEAQYCELDVVPGDLNRFTLTGCLPQRSEPLPLAFAVQDGASYAGAILKDELKQAGITWSGTLLRQTQVNEPGTVVASKQSAPLHDLLKIMLKKSDNMIADTVFRMIGHARFNVPGTWRAGSDAVRQILRQQAGVDIGNTIIADGSGLSRHNLIAPATMMQVLQYIAQHDNELNFISMLPLAGYDGSLQYRAGLHQAGVDGKVSAKTGSLQGVYNLAGFITTASGQRMAFVQYLSGYAVEPADQRNRRIPLVRFESRLYKDIYQNN | 6.48 ± 0.36 h | 6.25 ± 0.35 h | 6.87 ± 0.72 h | 6.194 ± 0.044 h | 6.051 ± 0.02 h | 3.24 ± 0.54 h | 6.21 ± 0.86 h | 12.7 ± 0.72 h | 6.15 ± 0.52 h | 13.4 ± 0.64 h | 6.25 ± 0.55 h | 12.6 ± 0.42 h
2 | MRFSTQMMYQQNMRGITNSQAEWMKYGEQMSTGKRVVNPSDDPIAASQAVVLSQAQAQNSQYTLARTFATQKVSLEESVLSQVTTAIQNAQEKIVYASNGTLSDDDRASLATDIQGLRDQLLNLANTTDGNGRYIFAGYKTETAPFSEEKGKYVGGAESIKQQVDASRSMVIGHTGDKIFDSITSNAVAEPDGSASETNLFAMLDSAIAALKTPVADSEADKETAAAALDKTNRGLKNSLNNVLTVRAELGTQLNELESLDSLGSDRALGQTQQMSDLVDVDWNATISSYIMQQTALQASYKAFTDMQGLSLFQLSK | 2.65 ± 0.11 h | > 8 h | – | – | – | 0.265 ± 0.026 h | 0.393 ± 0.063 h | 0.399 ± 0.39 h | – | – | – | –
3 | MRGKILLYQLKYRWQSLSIFGCFLCKMTLFRYQKIIYDTGVHQMRSFFYTICSSEQQESITDHHSLAEICQKFNILPEHVVIEQVDIKEVVSEQRLLRQLIHHEMNRQDTLVIPDLSCLGRTVEDLQNILFFCLQKEMFIYSYHPASRIEPSAESCLSFLIARQDTIDIHNLKSTKSRYRHVKKKLGRKEGSKYRRDITILKKGGFTQAEIAKKLSISLSTVKRHWNNGIIG | 6.03 h | – | – | – | – | – | – | – | – | – | – | –
4 | MRHSLPYRMLRKRPMKLSTTVILMVSAVLFSVLLVVHLIYFSQISDMTRDGLANKALAVARTLADSPEIRQGLQKKPQESGIQAIAEAVRKRNDLLFIVVTDMQSLRYSHPEAQRIGQPFKGDDILKALNGEENVAINRGFLAQALRVFTPIYDENHKQIGVVAIGLELSRVTQQINDSRWSIIWSVLFGMLVGLIGTCILVKVLKKILFGLEPYEISTLFEQRQAMLQSIKEGVVAVDDRGEVTLINDAAQELLNYRKSQDDEKLSTLSHSWSQVVDVSEVLRDGTPRRDEEITIKDRLLLINTVPVRSNGVIIGAISTFRDKTEVRKLMQRLDGLVNYADALRERSHEFMNKLHVILGLLHLKSYKQLEDYILKTANNYQEEIGSLLGKIKSPVIAGFLISKINRATDLGHTLILNSESQLPDSGSEDQVATLITTLGNLIENALEALGPEPGGEISVTLHYRHGWLHCEVNDDGPGIAPDKIDHIFDKGVSTKGSERGVGLALVKQQVENLGGSIAVESEPGIFTQFFVQIPWDGERSNR [P0AEC8] | 6.93 ± 0.11 h | 6.33 h | 5.74 ± 0.12 h | 5.85 ± 0.23 h | 5.57 ± 0.62 h | 2.98 ± 0.12 h | 5.883 ± 0.049 h | 11.9 ± 0.56 h | 6.25 ± 0.84 h | 9.85 ± 3 h | 6.32 h | 11.6 ± 0.52 h
5 | MRIEVTIAKTSPLPAGAIDALAGELSRRIQYAFPDNEGHVSVRYAAANNLSVIGATKEDKQRISEILQETWESADDWFVSE [P0ABR1] | 3.596 ± 0.025 h | – | 2.28 h | 2.08 ± 0.25 h | – | 0.937 ± 0.5 h | – | – | – | 0.715 h | – | 0.859 h
6 | MRIGQYQLRNRLIAAPMAGITDRPFRTLCYEMGAGLTVSEMMSSNPQVWESDKSRLRMVHIDEPGIRTVQIAGSDPKEMADAARINVESGAQIIDINMGCPAKKVNRKLAGSALLQYPDVVKSILTEVVNAVDVPVTLKIRTGWAPEHRNCEEIAQLAEDCGIQALTIHGRTRACLFNGEAEYDSIRAVKQKVSIPVIANGDITDPLKARAVLDYTGADALMIGRAAQGRPWIFREIQHYLDTGELLPPLPLAEVKRLLCAHVRELHDFYGPAKGYRIARKHVSWYLQEHAPNDQFRRTFNAIEDASEQLEALEAYFENFA [P0ABT5] | 4.65 ± 0.67 h | 3.28 h | – | – | 2.21 ± 0.077 h | 2.88 ± 0.28 h | 3.67 ± 0.67 h | 6.75 ± 0.78 h | 2.23 h | 3.47 h | 5.13 ± 0.28 h | 8.25 ± 0.84 h
